T1: CsrD^ΔHAMP (MBP-tagged CsrD residues 192–646) (E. coli, UniProt P13518 192-646)
T1 sequence (looked up): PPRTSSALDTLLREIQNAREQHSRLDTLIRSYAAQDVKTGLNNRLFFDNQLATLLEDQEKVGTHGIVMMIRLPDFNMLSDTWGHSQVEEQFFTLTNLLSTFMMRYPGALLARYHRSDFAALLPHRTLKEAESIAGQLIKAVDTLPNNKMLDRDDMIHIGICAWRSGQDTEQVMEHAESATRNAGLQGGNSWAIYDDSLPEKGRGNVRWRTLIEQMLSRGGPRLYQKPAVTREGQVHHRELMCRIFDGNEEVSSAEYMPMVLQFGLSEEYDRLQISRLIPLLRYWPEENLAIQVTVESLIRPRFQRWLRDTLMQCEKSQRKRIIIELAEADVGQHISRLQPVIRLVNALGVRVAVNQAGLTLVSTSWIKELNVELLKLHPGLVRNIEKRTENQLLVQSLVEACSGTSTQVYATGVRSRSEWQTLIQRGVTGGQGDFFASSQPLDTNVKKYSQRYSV

B1: CsrD^ΔTM (MBP-tagged CsrD residues 156–646, transmembrane domains replaced with MBP) (domain or fragment, E. coli, UniProt P13518 156-646, looked up)
chain: RWLQRQLAGQELLETRATRILNGERGSNVLGTIYEWPPRTSSALDTLLREIQNAREQHSRLDTLIRSYAAQDVKTGLNNRLFFDNQLATLLEDQEKVGTHGIVMMIRLPDFNMLSDTWGHSQVEEQFFTLTNLLSTFMMRYPGALLARYHRSDFAALLPHRTLKEAESIAGQLIKAVDTLPNNKMLDRDDMIHIGICAWRSGQDTEQVMEHAESATRNAGLQGGNSWAIYDDSLPEKGRGNVRWRTLIEQMLSRGGPRLYQKPAVTREGQVHHRELMCRIFDGNEEVSSAEYMPMVLQFGLSEEYDRLQISRLIPLLRYWPEENLAIQVTVESLIRPRFQRWLRDTLMQCEKSQRKRIIIELAEADVGQHISRLQPVIRLVNALGVRVAVNQAGLTLVSTSWIKELNVELLKLHPGLVRNIEKRTENQLLVQSLVEACSGTSTQVYATGVRSRSEWQTLIQRGVTGGQGDFFASSQPLDTNVKKYSQRYSV
B2: CsrD^ΔEAL (MBP-tagged CsrD residues 156–385) (domain or fragment, E. coli, UniProt P13518 156-385, looked up)
chain: RWLQRQLAGQELLETRATRILNGERGSNVLGTIYEWPPRTSSALDTLLREIQNAREQHSRLDTLIRSYAAQDVKTGLNNRLFFDNQLATLLEDQEKVGTHGIVMMIRLPDFNMLSDTWGHSQVEEQFFTLTNLLSTFMMRYPGALLARYHRSDFAALLPHRTLKEAESIAGQLIKAVDTLPNNKMLDRDDMIHIGICAWRSGQDTEQVMEHAESATRNAGLQGGNSWAIY
B3: His-tagged EIIA^Glc (enzyme IIA^Glc of the glucose-specific PTS), unphosphorylated (natural protein, E. coli, UniProt P69783 1-169, looked up)
chain: MGLFDKLKSLVSDDKKDTGTIEIIAPLSGEIVNIEDVPDVVFAEKIVGDGIAIKPTGNKMVAPVDGTIGKIFETNHAFSIESDSGVELFVHFGIDTVELKGEGFKRIAEEGQRVKVGDTVIEFDLPLLEEKAKSTLTPVVISNMDEIKELIKLSGSVTVGETPVIRIKK
B4: EAL (MBP-tagged EAL domain of CsrD, residues 393–646) (domain or fragment, E. coli, UniProt P13518 393-646, looked up)
chain: GRGNVRWRTLIEQMLSRGGPRLYQKPAVTREGQVHHRELMCRIFDGNEEVSSAEYMPMVLQFGLSEEYDRLQISRLIPLLRYWPEENLAIQVTVESLIRPRFQRWLRDTLMQCEKSQRKRIIIELAEADVGQHISRLQPVIRLVNALGVRVAVNQAGLTLVSTSWIKELNVELLKLHPGLVRNIEKRTENQLLVQSLVEACSGTSTQVYATGVRSRSEWQTLIQRGVTGGQGDFFASSQPLDTNVKKYSQRYSV
B5: CsrD^ΔGGDEF (MBP-tagged CsrD residues 156–223 and 393–646) (domain or fragment, E. coli, UniProt P13518 156-223, looked up)
chain: RWLQRQLAGQELLETRATRILNGERGSNVLGTIYEWPPRTSSALDTLLREIQNAREQHSRLDTLIRSYGRGNVRWRTLIEQMLSRGGPRLYQKPAVTREGQVHHRELMCRIFDGNEEVSSAEYMPMVLQFGLSEEYDRLQISRLIPLLRYWPEENLAIQVTVESLIRPRFQRWLRDTLMQCEKSQRKRIIIELAEADVGQHISRLQPVIRLVNALGVRVAVNQAGLTLVSTSWIKELNVELLKLHPGLVRNIEKRTENQLLVQSLVEACSGTSTQVYATGVRSRSEWQTLIQRGVTGGQGDFFASSQPLDTNVKKYSQRYSV

How the values were obtained:
[1] = target: the molecule itself; assay: SEC
[2] = target: T1, CsrD^ΔHAMP (MBP-tagged CsrD residues …); assay: pull-down
[3] = target: B4; assay: pull-down
[4] = target: B3; assay: SEC
[5] = target: B3; assay: pull-down

Binder: B1
stoichiometry N [1]: 4

Binder: B2
stoichiometry N [1]: 4

Binder: B3
binding result [2]: binds | binding result [3]: binds

Binder: B4
stoichiometry N [4]: 1 EAL per EIIA^Glc

Binder: B5
binding result [5]: binds | stoichiometry N [1]: 4
